This note sets out measurements from publication PMC5240526, “ATPase activity tightly regulates RecA nucleofilaments to promote homologous recombination”.

Data set [1] deals with T1, RecA wild type (Escherichia coli, UniProt P0A7G6 2-353). Briefly: CE-LIFP; 0.01-3.0 mM ATP; 16 uM RecA; four complexes; 20 mM Tris-HCl pH 7.4, 10 mM Mg2+, 10 nM oligo, 0-3.0 uM RecA, 37 C 10 min; CE in 25 mM Tris, 192 mM glycine, 0.5 mM Ca2+, pH 8.3, room temperature. To be noted: protein: recombinant; label: 5'-TMR.
T1 sequence (P0A7G6 2-353): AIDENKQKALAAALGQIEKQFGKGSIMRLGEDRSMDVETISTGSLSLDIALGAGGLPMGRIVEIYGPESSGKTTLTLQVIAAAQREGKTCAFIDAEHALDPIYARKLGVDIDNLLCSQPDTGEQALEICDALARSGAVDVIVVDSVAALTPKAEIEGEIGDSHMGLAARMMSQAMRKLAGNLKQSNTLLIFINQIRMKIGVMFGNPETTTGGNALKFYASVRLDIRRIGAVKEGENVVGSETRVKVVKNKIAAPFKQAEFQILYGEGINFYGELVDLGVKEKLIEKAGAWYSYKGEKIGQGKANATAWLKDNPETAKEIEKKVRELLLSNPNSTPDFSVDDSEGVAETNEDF
Data set [2] has as its target T1, RecA wild type. Briefly: CE-LIFP; ATP, 10 mM Mg2+; 3.0 uM RecA; mainly unsaturated filament; 20 mM Tris-HCl pH 7.4, 10 mM Mg2+, 10 nM oligo, 0-3.0 uM RecA, 37 C 10 min; CE in 25 mM Tris, 192 mM glycine, 0.5 mM Ca2+, pH 8.3, room temperature. To be noted: protein: recombinant; label: 5'-TMR.
Data set [3] has as its target T1, RecA wild type. Briefly: CE-LIFP; 0.01-3.0 mM ATP; 16 uM RecA; five complexes; 20 mM Tris-HCl pH 7.4, 10 mM Mg2+, 10 nM oligo, 0-3.0 uM RecA, 37 C 10 min; CE in 25 mM Tris, 192 mM glycine, 0.5 mM Ca2+, pH 8.3, room temperature. To be noted: protein: recombinant; label: 5'-TMR.
The target of data set [4] is T1, RecA wild type. Briefly: CE-LIFP; ATP, 10 mM Mg2+; six complexes (1-6 RecA), mainly 1:4 DNA:RecA at 1.0 mM ATP; 20 mM Tris-HCl pH 7.4, 10 mM Mg2+, 10 nM oligo, 0-3.0 uM RecA, 37 C 10 min; CE in 25 mM Tris, 192 mM glycine, 0.5 mM Ca2+, pH 8.3, room temperature. To be noted: protein: recombinant; label: 5'-TMR.
For data set [5], the target named is T1, RecA wild type. Briefly: CE-LIFP; 0.1 mM ATPgS, 10 mM Mg2+; 3.0 uM RecA; saturated filament; 20 mM Tris-HCl pH 7.4, 10 mM Mg2+, 10 nM oligo, 0-3.0 uM RecA, 37 C 10 min; CE in 25 mM Tris, 192 mM glycine, 0.5 mM Ca2+, pH 8.3, room temperature. To be noted: protein: recombinant; label: 5'-TMR.
Data set [6] deals with T1, RecA wild type. As to the kind of experiment: electron microscopy; 0.1 mM ATPgS; 3.0 uM RecA, 300 nM DNA; saturated filament; 20 mM Tris-HCl pH 7.4, 10 mM Mg2+, 10 nM oligo, 0-3.0 uM RecA, 37 C 10 min; CE in 25 mM Tris, 192 mM glycine, 0.5 mM Ca2+, pH 8.3, room temperature. To be noted: protein: recombinant.

B1: TMR-T12 (ssDNA)
DNA: TTTTTTTTTTTT
In the case of B1, the binding result in data set [1] is “binds”.

B2: TMR-ss175mer (ssDNA)
DNA: TCGTCTTTGGTATGTAGGTGGTCAACAATTTTAATTGCAGGGGCTTCGGCCCCTTACTTGAGGATAAATTATGTCTAATATTCAAACTGGCGCCGAGCGTATGCCGCATGACCTTTCCCATCTTGGCTTCCTTGCTGGTCAGATTGGTCGTCTTATTACCATTTCAACTACTCCG
As to B2, the binding result in data set [2] is on record as “binds”.

B3: TMR-T15 (ssDNA)
DNA: TTTTTTTTTTTTTTT
As to B3, the binding result in data set [3] was “binds”.

B4: TMR-T18 (ssDNA)
DNA: TTTTTTTTTTTTTTTTTT
On to B4, for which the binding result in data set [4] is on record as “binds”.

B5: TMR-ss83mer (ssDNA)
DNA: TTTCCTACCTTAAGATCCTTCCAGTCTCCGCCGGCCAGTGTTACCCTTAGAGCTCATACCATTCGCCAATTTCTTCGCACGTT
Consider B5, for which the binding result in data set [5] is reported as “binds”.

B6: ss83mer (ssDNA)
DNA: TTTCCTACCTTAAGATCCTTCCAGTCTCCGCCGGCCAGTGTTACCCTTAGAGCTCATACCATTCGCCAATTTCTTCGCACGTT
For the molecule B6, in data set [6], the binding result is recorded as “binds”.
